Laboratory results taken from FireProtDB (doi:10.1006/jmbi.1995.0616).

B1: Subtilisin-chymotrypsin inhibitor-2A, P01053 (parent)
chain: MSSVEKKPEGVNTGAGDRHNLKTEWPELVGKSVEEAKKVILQDKPEAQIIVLPVGTIVTMEYRIDRVRLFVDKLDNIAQVPRVG

Variants of: B1
Settings: Hordeum vulgare; pH 6.25; 25 °C; GdnHCl; Fluorescence; MES 50 mM; reversible: yes; structure 2CI2; whole UniProt chain shown

| Variant | ddG of mutation (higher = less stable) | denaturant m value | denaturant midpoint (higher = more stable) | unfolding free energy |
| --- | --- | --- | --- | --- |
| MSSVEKKPEGVNTGAGDRHNLKTEWPELVGKSVEEAKKVILQDKPEAQIIVAPVGTIATMEYRIDRVRLLVDKLDNIAQVPRVG | 3.34 kcal/mol | 1.93 kcal/mol/M | 2.21 M | 4.26 kcal/mol |
| MSSVEKKPEGVNTGAGDRHNLKTEWPELVGKSVEEAKKVILQDKPEAQIIVLPVGTIATMEYRIDRVRLFVDKLDNIAQVPRVG | 0.67 kcal/mol | 2.14 kcal/mol/M | 3.24 M | 6.93 kcal/mol |
| MSSVEKKPEGVNTGAGDRHNLKTEWPELVGKSVEEAKKVILQDKPEAQIIVVPVGTIATMEYRIDRVRLFVDKLDNIAQVPRVG | 1.93 kcal/mol | 1.86 kcal/mol/M | 3.05 M | 5.67 kcal/mol |
| MSSVEKKPEGVNTGAGDRHNLKTEWPELVGKSVEEAKKVILQDKPEAQIIVVPVGTIVTMEYRIDRVRLLVDKLDNIAQVPRVG | 1.08 kcal/mol | 2.37 kcal/mol/M | 2.75 M | 6.52 kcal/mol |
| MSSVEKKPEGVNTGAGDRHNLKTEWPELVGKSVEEAKKVILQDKPEAQIIVVPVGTIVTMEYRIDRVRLAVDKLDNIAQVPRVG | 3.26 kcal/mol | 1.94 kcal/mol/M | 2.24 M | 4.34 kcal/mol |
| MSSVEKKPEGVNTGAGDRHNLKTEWPELVGKAVEEAKKVILQDKPEAQIIVLPVGTIVTMEYRIDRVRLFVDKLDNIAQVPRVG | 1.02 kcal/mol | 1.86 kcal/mol/M | 3.54 M | 6.58 kcal/mol |
| MSSVEKKPEGVNTGAGDRHNLKTEWPELVGKGVEEAKKVILQDKPEAQIIVLPVGTIVTMEYRIDRVRLFVDKLDNIAQVPRVG | 0.06 kcal/mol | 2.1 kcal/mol/M | 3.59 M | 7.54 kcal/mol |
| MSSVEKKPEGVNTGAGDRHNLKTEWPELVGKSVEEAGKVILQDKPEAQIIVLPVGTIVTMEYRIDRVRLFVDKLDNIAQVPRVG | 2.01 kcal/mol | 1.99 kcal/mol/M | 2.8 M | 5.59 kcal/mol |
| MSSVEKKPEGVNTGAGDRHNLKTEWPELVGKSVEEAAKVILQDKPEAQIIVLPVGTIVTMEYRIDRVRLFVDKLDNIAQVPRVG | 1.13 kcal/mol | 1.73 kcal/mol/M | 3.75 M | 6.47 kcal/mol |
| MSSVEKKPEGVNTGAGDRHNLKTEWPELVGKSVEEGKKVILQDKPEAQIIVLPVGTIVTMEYRIDRVRLFVDKLDNIAQVPRVG | 1.41 kcal/mol | 1.8 kcal/mol/M | 3.44 M | 6.19 kcal/mol |
| MSSVEKKPEGVNTGAGDRHNLKTEWPELVGKSVEEAKKVILQDKPEAQIIVAPVGTIVTMEYRIDRVRLLVDKLDNIAQVPRVG | 3.25 kcal/mol | 1.94 kcal/mol/M | 2.24 M | 4.35 kcal/mol |
| MSSVEKKPEGVNTGAGDRHNLKTEWPELVGKSVEEAKKVILQDKPEAQIIVAPVGTIVTMEYRIDRVRLAVDKLDNIAQVPRVG | 5.16 kcal/mol | 1.59 kcal/mol/M | 1.53 M | 2.44 kcal/mol |
| MSSVEKKPEGVNTGAGDRHNLKTEWPELVGKSVEEAKKVILQDKAEAQIIVLPVGTIVTMEYRIDRVRLFVDKLDNIAQVPRVG | 1.22 kcal/mol | 2.07 kcal/mol/M | 3.09 M | 6.38 kcal/mol |
| MSSVEKKPEGVNTGAGDRHNLKTEWPELVGKSVEEAKKVILQDKPEAQIIVVPVGTIATMEYRIDRVRLLVDKLDNIAQVPRVG | 2.84 kcal/mol | 1.83 kcal/mol/M | 2.6 M | 4.76 kcal/mol |
| MSSVEKKPEGVNTGAGDRHNLKTEWPELVGKSVAAAKKVILQDKPEAQIIVLPVGTIVTMEYRIDRVRLFVDKLDNIAQVPRVG | -0.02 kcal/mol | 2.11 kcal/mol/M | 3.61 M | 7.62 kcal/mol |
| MSSVEKKPEGVNTGAGDRHNLKTEWPELVGKGVAAAKKVILQDKPEAQIIVLPVGTIVTMEYRIDRVRLFVDKLDNIAQVPRVG | 0.81 kcal/mol | 2.15 kcal/mol/M | 3.16 M | 6.79 kcal/mol |
| MSSVEKKPEGVNTGAGDRHNLKTEWPELVGASVEEAKKVILQDKPEAQIIVLPVGTIVTMEYRIDRVRLFVDKLDNIAQVPRVG | 1.2 kcal/mol | 1.52 kcal/mol/M | 4.22 M | 6.4 kcal/mol |
| MSSVEKKPEGVNTGAGDRHNLKTEWPELVGKSVEDAKKVILQDKPEAQIIVLPVGTIVTMEYRIDRVRLFVDKLDNIAQVPRVG | -0.36 kcal/mol | 2.2 kcal/mol/M | 3.62 M | 7.96 kcal/mol |
| MSSVEKKPEGVNTGAGDRHNLKTEWPELVGKSVENAKKVILQDKPEAQIIVLPVGTIVTMEYRIDRVRLFVDKLDNIAQVPRVG | 0.08 kcal/mol | 2.18 kcal/mol/M | 3.45 M | 7.52 kcal/mol |
| MSSVEKKPEGVNTGAGDRHNLKTEWPELVGKSVEQAKKVILQDKPEAQIIVLPVGTIVTMEYRIDRVRLFVDKLDNIAQVPRVG | 0.68 kcal/mol | 1.84 kcal/mol/M | 3.76 M | 6.92 kcal/mol |
| MSSVEKKPEGVNTGAGDRHNLKTEWPELVGKSVEEAKKVILQDAPEAQIIVLPVGTIVTMEYRIDRVRLFVDKLDNIAQVPRVG | 1.85 kcal/mol | 1.57 kcal/mol/M | 3.67 M | 5.75 kcal/mol |
| MSSVEKKPEGVNTGAGDRHNLKTEWPELVGKSVEEAKKVILQAKPEAQIIVLPVGTIVTMEYRIDRVRLFVDKLDNIAQVPRVG | 1.05 kcal/mol | 1.87 kcal/mol/M | 3.51 M | 6.55 kcal/mol |
| MSSVEKKPEGVNTGAGDRHNLKTEWPELVGKSVEEAKKVILQDKPEAQIIVLPVGTIATMEYRIDRVRLFVDKLDNIAQAPRVG | 3.78 kcal/mol | 2.19 kcal/mol/M | 1.75 M | 3.82 kcal/mol |
| MSSVEKKPEGVNTGAGDRHNLKTEWAELVGKSVEEGKKVILQDKPEAQIIVLPVGTIVTMEYRIDRVRLFVDKLDNIAQVPRVG | 1.3 kcal/mol | 2.39 kcal/mol/M | 2.64 M | 6.3 kcal/mol |
| MSSVEKKPEGVNTGAGDRHNLKTEWPELVGKSVEEAKKVVLQDKPEAQIIVLPVGTIVTMEYRIDRVRLFVDKLDNIAQVPRVG | 0.97 kcal/mol | 1.99 kcal/mol/M | 3.33 M | 6.63 kcal/mol |
| MSSVEKKPEGVNTGAGDRHNLKTEWPELVGKSVDEAKKVILQDKPEAQIIVLPVGTIVTMEYRIDRVRLFVDKLDNIAQVPRVG | 0.77 kcal/mol | 1.83 kcal/mol/M | 3.73 M | 6.83 kcal/mol |
